These results are taken from paper PMC10333379.

The term Kd denotes the constant that tells how readily two partners part at equilibrium.

This test has as its target human angiotensin-converting enzyme 2 (hACE2) with an Fc domain (human) (UniProt Q9BYF1). Put plainly: BLI. On the technique in general: In BLI a coated tip is dipped into the sample, and binding shifts an interference pattern.
Chain of UniProt Q9BYF1 (Q9BYF1 18-740): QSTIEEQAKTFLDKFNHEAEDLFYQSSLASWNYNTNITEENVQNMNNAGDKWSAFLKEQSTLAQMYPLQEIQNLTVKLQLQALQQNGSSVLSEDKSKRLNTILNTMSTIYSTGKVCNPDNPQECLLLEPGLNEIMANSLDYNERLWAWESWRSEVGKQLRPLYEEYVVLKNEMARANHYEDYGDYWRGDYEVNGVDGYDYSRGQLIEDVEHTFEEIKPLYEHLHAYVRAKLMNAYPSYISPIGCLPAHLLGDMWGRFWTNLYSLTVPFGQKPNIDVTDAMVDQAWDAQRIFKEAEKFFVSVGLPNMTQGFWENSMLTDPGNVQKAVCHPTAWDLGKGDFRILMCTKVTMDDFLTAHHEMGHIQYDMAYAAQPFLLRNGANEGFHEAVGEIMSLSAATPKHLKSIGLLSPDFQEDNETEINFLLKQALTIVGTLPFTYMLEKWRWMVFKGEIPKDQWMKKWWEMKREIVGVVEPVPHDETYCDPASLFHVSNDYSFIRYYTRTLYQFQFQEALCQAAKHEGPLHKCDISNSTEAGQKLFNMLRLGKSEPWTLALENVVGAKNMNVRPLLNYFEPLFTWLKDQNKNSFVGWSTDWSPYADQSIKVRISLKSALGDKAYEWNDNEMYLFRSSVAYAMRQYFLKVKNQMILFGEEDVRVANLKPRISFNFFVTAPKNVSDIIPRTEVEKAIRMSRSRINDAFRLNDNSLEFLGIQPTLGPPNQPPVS

With “Bat SARS-like coronavirus CX1 receptor-binding domain (RBD) of spike protein (domain or fragment)”, the Kd amounted to 10.7 nM.
